The target of the series is T1, ErdR (CrbR), 6His-ErdR (Pseudomonas putida KT2440) (UniProt Q88MD8).
T1 sequence: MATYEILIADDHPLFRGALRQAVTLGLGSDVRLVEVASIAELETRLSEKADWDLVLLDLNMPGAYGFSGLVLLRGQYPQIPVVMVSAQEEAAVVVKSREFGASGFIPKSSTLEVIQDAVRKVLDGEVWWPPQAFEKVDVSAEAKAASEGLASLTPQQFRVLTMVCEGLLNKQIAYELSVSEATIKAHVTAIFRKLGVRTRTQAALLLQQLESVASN
Description: EMSA. As to conditions: 10 mM Tris-HCl pH 8, 2 mM MgCl2, 1 mM DTT, 10% glycerol, 12 ng/uL sheared salmon sperm DNA, 2 mM acetyl phosphate when needed; 2.5 ng DNA in 10 uL, 20 min at …. (Mobility shift assays separate free from complexed probe on a gel.)

Regarding “AATCGCCTTGCCGTTGCTGGCGAGGTGAATTTTATGGCGCTGGCCAAGGCCGAAACAGTGGGTGTTTTGATAAAGTGTTTTGACAGAATCTGTAACAATCCTGTGGCAAACCCCTCGTTTTTTCGTCGGCAAGGCTGTAA (double strand) [acsA-I (1) promoter]”, the binding entry is given as “no binding”. For the sequence “AGCAACGGCAAGGCGATTAACAACTGGTAACAGCCCCCACGAAGGCAAGCGTTAATCTCCATCTAATCCCGATAGTTAAAACTAGCAATACTCGCGGCGCCATAAGCGCCGCGTGCCCCCTCACGACCTTAGACAGGTAA (double strand) [acsA-I (2) promoter]”, the binding result is reported as “no binding”.

As for “CGCGAACGGGTCATCACTTTGTTACGCAATCGGTAAAACACCGTTGCATCTAAGACTAAGGTCGTCTGGTTGGCGTCCATCGGCAGCATAAAGTAAGGGTGTGGGTTCCATCCCGTATCTGTGCTGCTAGGACAAAAACA (double strand) [yjcH (actP-I) promoter]”, the binding result was “binds”.

For the sequence “TAGGCGTCCTTTTTGCTCATGAAACTGACCGTATCGCTATGCCGAACTATATATATCTATATATAGGTACCGGCCATGTTGTTCTCTGCCTCCATGGTCGGCTTGCGGCGGGGTGGTGCCCATTGGACGTAAGTCTATGA (double strand) [pp_0354 promoter]”, the binding result is given as “binds” and the binding signal result is “binds”.

(Values after PMC8402216.)
